According to IntAct's records for PubMed 29039417:

B1: Isoform 2 of Bardet-Biedl syndrome 7 protein (Homo sapiens), Q8IWZ6-2 (parent)
chain: MDLILNRMDYLQVGVTSQKTMKLIPASRHRATQKVVIGDHDGVVMCFGMKKGEAAAVFKTLPGPKIARLELGGVINTPQEKIFIAAASEIRGFTKRGKQFLSFETNLTESIKAMHISGSDLFLSASYIYNHYCDCKDQHYYLSGDKINDVICLPVERLSRITPVLACQDRVLRVLQGSDVMYAVEVPGPPTVLALHNGNGGDSGEDLLFGTSDGKLALIQITTSKPVRKWEIQNEKKRGGILCIDSFDIVGDGVKDLLVGRDDGMVEVYSFDNANEPVLRFDQMLSESVTSIQGGCVGKDSYDEIVVSTYSGWVTGLTTEPIHKESGPGEELKINQEMQNKISSLRNELEHLQYKVLQERENYQQSSQSSKAKSAVPSFGINDKFTLNKDDASYSLILEVQTAIDNVLIQSDVPIDLLDVDKNSAVVSFSSCDSESNDNFLLATYRCQADTTRLELKIRSIEGQYGTLQAYVTPRIQPKTCQVRQYHIKPLSLHQRTHFIDHDRPMNTLTLTGQFSFAEVHSWVVFCLPEVPEKPPAGECVTFYFQNTFLDTQLESTYRKGEGVFKSDNISTISILKDVLSKEATKRKINLNISYEINEVSVKHTLKLIHPKLEYQLLLAKKVQLIDALKELQIHEGNTNFLIPEYHCILEEADHLQEEYKKQPAHLERLYG
partner: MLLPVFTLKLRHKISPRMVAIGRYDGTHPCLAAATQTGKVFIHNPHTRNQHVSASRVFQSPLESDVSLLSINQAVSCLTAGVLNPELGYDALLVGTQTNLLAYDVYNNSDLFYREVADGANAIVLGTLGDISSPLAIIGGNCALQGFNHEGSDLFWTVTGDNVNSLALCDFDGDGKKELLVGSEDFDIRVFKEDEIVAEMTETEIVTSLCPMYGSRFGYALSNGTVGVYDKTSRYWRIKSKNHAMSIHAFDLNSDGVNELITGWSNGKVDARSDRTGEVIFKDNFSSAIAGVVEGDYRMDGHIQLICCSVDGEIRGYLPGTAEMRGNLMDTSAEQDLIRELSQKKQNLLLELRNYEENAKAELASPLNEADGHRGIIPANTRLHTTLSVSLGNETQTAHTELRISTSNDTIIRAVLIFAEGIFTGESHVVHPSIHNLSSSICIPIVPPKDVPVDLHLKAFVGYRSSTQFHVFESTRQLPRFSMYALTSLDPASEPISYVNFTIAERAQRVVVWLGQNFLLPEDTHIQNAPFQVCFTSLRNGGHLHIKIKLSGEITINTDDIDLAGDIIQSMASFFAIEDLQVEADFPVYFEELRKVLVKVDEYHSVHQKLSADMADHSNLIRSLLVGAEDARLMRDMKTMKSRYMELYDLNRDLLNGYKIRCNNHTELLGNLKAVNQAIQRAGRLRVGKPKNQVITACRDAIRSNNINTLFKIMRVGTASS

Variants of: B1
Conditions: with bbs2_human BBS2, Q9BXC9

effect of a mutation on the interaction	Variant
with no effect	Y660K
with no effect	I597A
with no effect	T639K
with no effect	N569E
with no effect	L619K
with no effect	L550K
with no effect	S574E
with no effect	T585E
with no effect	K586A
with no effect	L650A
with no effect	L650E
with no effect	Q616E
with no effect	H604K
with no effect	I589E
with no effect	G561K
with no effect	I626E

effect of a mutation on the interaction	Variant
with no effect	D578A
with no effect	H610K
with no effect	H610E
with no effect	L667K
with no effect	A628E
with no effect	V623A
with no effect	K566A
with no effect	L642E
with no effect	S581A
with no effect	H635K
with no effect	T552E
with no effect	L670E
with no effect	G563A
with no effect	A653E
with no effect	E645K
with no effect	I570A

The next lines start with the variant.

Variant	effect of a mutation on the interaction
S378K	with no effect
S378E	with no effect
L417A	with no effect
S370A	with no effect
I415A	with no effect
D390A	with no effect
D390K	with no effect
H521E	with no effect
A537E	with no effect
A537K	with no effect
N335A	with no effect
V420E	with no effect
R446E	with no effect
L332K	with no effect
G538E	with no effect
E399K	with no effect
D416K	with no effect
I397K	with no effect
N340A	with no effect
C432A	with no effect

Variant	effect of a mutation on the interaction
P490L	disrupting interaction strength
E530K	with no effect
S460E	with no effect
S460A	with no effect
E539A	with no effect
E519K	with no effect
Q546E	with no effect
Q464E	with no effect
Q464A	with no effect
V400E	with no effect
P474E	disrupting interaction strength
H502E	with no effect
Q514E	with no effect
Y471A	with no effect
Q353E	with no effect
T480A	with no effect
R496A	with no effect
Q469A	disrupting interaction strength
N347A	with no effect
F545E	with no effect

Variant	effect of a mutation on the interaction
V413K	with no effect
V413E	with no effect
N439A	disrupting interaction strength
A518K	with no effect
L387E	with no effect
H494K	with no effect
H498E	with no effect
D405A	with no effect
S374A	with no effect
E350K	with no effect
V427K	with no effect
S343A	with no effect
I409E	with no effect
S367K	with no effect
L493E	with no effect
S366A	with no effect
M506A	with no effect
L509P	disrupting interaction strength
T473E	with no effect
L352E	with no effect
